T1: Human CD3eg linker (human)
T1 construct: Single chain: epsilon and gamma subunits of human CD3 joined by a 29-mer linker, Flag-tag at the C-terminus; also called recombinant human CD3
T1 chain: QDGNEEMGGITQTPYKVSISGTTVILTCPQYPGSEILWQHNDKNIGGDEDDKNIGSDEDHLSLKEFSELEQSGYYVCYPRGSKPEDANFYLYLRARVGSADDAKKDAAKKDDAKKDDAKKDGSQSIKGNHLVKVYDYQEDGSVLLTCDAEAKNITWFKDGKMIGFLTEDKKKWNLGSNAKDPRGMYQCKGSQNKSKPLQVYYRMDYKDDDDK

B1: H183/L072 VH N53S (antibody, name in Kabat numbering, V domains shown)
VH: QVQLVESGGGLVQPGRSLRLSCAASGFTFSNAWMHWVRQAPGKGLEWVAQIKDKGSAYAAYYAPSVKGRFTISRDDSKNSIYLQMNSLKTEDTAVYYCHYVHYASASTVLPAFGVDAWGQGTTVTVSS
VL: DIVMTQSPLSLPVTPGEPASISCQASQELVHMNRNTYLHWYQQKPGQAPRLLIYKVSNRFPGVPDRFSGSGSGTDFTLKISRVEAEDVGVYYCAQGTSVPFTFGQGTKLEIK
B2: H183/L072 VH Q50E (antibody, name in Kabat numbering, V domains shown)
VH: QVQLVESGGGLVQPGRSLRLSCAASGFTFSNAWMHWVRQAPGKGLEWVAEIKDKGNAYAAYYAPSVKGRFTISRDDSKNSIYLQMNSLKTEDTAVYYCHYVHYASASTVLPAFGVDAWGQGTTVTVSS
VL: DIVMTQSPLSLPVTPGEPASISCQASQELVHMNRNTYLHWYQQKPGQAPRLLIYKVSNRFPGVPDRFSGSGSGTDFTLKISRVEAEDVGVYYCAQGTSVPFTFGQGTKLEIK
B3: H183/L072 VH P61I (antibody, name in Kabat numbering, V domains shown)
VH: QVQLVESGGGLVQPGRSLRLSCAASGFTFSNAWMHWVRQAPGKGLEWVAQIKDKGNAYAAYYAISVKGRFTISRDDSKNSIYLQMNSLKTEDTAVYYCHYVHYASASTVLPAFGVDAWGQGTTVTVSS
VL: DIVMTQSPLSLPVTPGEPASISCQASQELVHMNRNTYLHWYQQKPGQAPRLLIYKVSNRFPGVPDRFSGSGSGTDFTLKISRVEAEDVGVYYCAQGTSVPFTFGQGTKLEIK
B4: H183/L072 VH N53T (antibody, name in Kabat numbering, V domains shown)
VH: QVQLVESGGGLVQPGRSLRLSCAASGFTFSNAWMHWVRQAPGKGLEWVAQIKDKGTAYAAYYAPSVKGRFTISRDDSKNSIYLQMNSLKTEDTAVYYCHYVHYASASTVLPAFGVDAWGQGTTVTVSS
VL: DIVMTQSPLSLPVTPGEPASISCQASQELVHMNRNTYLHWYQQKPGQAPRLLIYKVSNRFPGVPDRFSGSGSGTDFTLKISRVEAEDVGVYYCAQGTSVPFTFGQGTKLEIK
B5: H183/L072 VH P61L (antibody, name in Kabat numbering, V domains shown)
VH: QVQLVESGGGLVQPGRSLRLSCAASGFTFSNAWMHWVRQAPGKGLEWVAQIKDKGNAYAAYYALSVKGRFTISRDDSKNSIYLQMNSLKTEDTAVYYCHYVHYASASTVLPAFGVDAWGQGTTVTVSS
VL: DIVMTQSPLSLPVTPGEPASISCQASQELVHMNRNTYLHWYQQKPGQAPRLLIYKVSNRFPGVPDRFSGSGSGTDFTLKISRVEAEDVGVYYCAQGTSVPFTFGQGTKLEIK
B6: H183/L072 VH P100eL (antibody, name in Kabat numbering, V domains shown)
VH: QVQLVESGGGLVQPGRSLRLSCAASGFTFSNAWMHWVRQAPGKGLEWVAQIKDKGNAYAAYYAPSVKGRFTISRDDSKNSIYLQMNSLKTEDTAVYYCHYVHYASASTVLLAFGVDAWGQGTTVTVSS
VL: DIVMTQSPLSLPVTPGEPASISCQASQELVHMNRNTYLHWYQQKPGQAPRLLIYKVSNRFPGVPDRFSGSGSGTDFTLKISRVEAEDVGVYYCAQGTSVPFTFGQGTKLEIK
B7: H183/L072 VH N53W (antibody, name in Kabat numbering, V domains shown)
VH: QVQLVESGGGLVQPGRSLRLSCAASGFTFSNAWMHWVRQAPGKGLEWVAQIKDKGWAYAAYYAPSVKGRFTISRDDSKNSIYLQMNSLKTEDTAVYYCHYVHYASASTVLPAFGVDAWGQGTTVTVSS
VL: DIVMTQSPLSLPVTPGEPASISCQASQELVHMNRNTYLHWYQQKPGQAPRLLIYKVSNRFPGVPDRFSGSGSGTDFTLKISRVEAEDVGVYYCAQGTSVPFTFGQGTKLEIK
B8: H183/L072 VH P100eM (antibody, name in Kabat numbering, V domains shown)
VH: QVQLVESGGGLVQPGRSLRLSCAASGFTFSNAWMHWVRQAPGKGLEWVAQIKDKGNAYAAYYAPSVKGRFTISRDDSKNSIYLQMNSLKTEDTAVYYCHYVHYASASTVLMAFGVDAWGQGTTVTVSS
VL: DIVMTQSPLSLPVTPGEPASISCQASQELVHMNRNTYLHWYQQKPGQAPRLLIYKVSNRFPGVPDRFSGSGSGTDFTLKISRVEAEDVGVYYCAQGTSVPFTFGQGTKLEIK
B9: H183/L072 VH P100eA (antibody, name in Kabat numbering, V domains shown)
VH: QVQLVESGGGLVQPGRSLRLSCAASGFTFSNAWMHWVRQAPGKGLEWVAQIKDKGNAYAAYYAPSVKGRFTISRDDSKNSIYLQMNSLKTEDTAVYYCHYVHYASASTVLAAFGVDAWGQGTTVTVSS
VL: DIVMTQSPLSLPVTPGEPASISCQASQELVHMNRNTYLHWYQQKPGQAPRLLIYKVSNRFPGVPDRFSGSGSGTDFTLKISRVEAEDVGVYYCAQGTSVPFTFGQGTKLEIK
B10: H183/L072 VH Q50A (antibody, name in Kabat numbering, V domains shown)
VH: QVQLVESGGGLVQPGRSLRLSCAASGFTFSNAWMHWVRQAPGKGLEWVAAIKDKGNAYAAYYAPSVKGRFTISRDDSKNSIYLQMNSLKTEDTAVYYCHYVHYASASTVLPAFGVDAWGQGTTVTVSS
VL: DIVMTQSPLSLPVTPGEPASISCQASQELVHMNRNTYLHWYQQKPGQAPRLLIYKVSNRFPGVPDRFSGSGSGTDFTLKISRVEAEDVGVYYCAQGTSVPFTFGQGTKLEIK
B11: H183/L072 VH N53Y (antibody, name in Kabat numbering, V domains shown)
VH: QVQLVESGGGLVQPGRSLRLSCAASGFTFSNAWMHWVRQAPGKGLEWVAQIKDKGYAYAAYYAPSVKGRFTISRDDSKNSIYLQMNSLKTEDTAVYYCHYVHYASASTVLPAFGVDAWGQGTTVTVSS
VL: DIVMTQSPLSLPVTPGEPASISCQASQELVHMNRNTYLHWYQQKPGQAPRLLIYKVSNRFPGVPDRFSGSGSGTDFTLKISRVEAEDVGVYYCAQGTSVPFTFGQGTKLEIK
B12: H183/L072 VH Q50G (antibody, name in Kabat numbering, V domains shown)
VH: QVQLVESGGGLVQPGRSLRLSCAASGFTFSNAWMHWVRQAPGKGLEWVAGIKDKGNAYAAYYAPSVKGRFTISRDDSKNSIYLQMNSLKTEDTAVYYCHYVHYASASTVLPAFGVDAWGQGTTVTVSS
VL: DIVMTQSPLSLPVTPGEPASISCQASQELVHMNRNTYLHWYQQKPGQAPRLLIYKVSNRFPGVPDRFSGSGSGTDFTLKISRVEAEDVGVYYCAQGTSVPFTFGQGTKLEIK
B13: H183/L072 VH P61A (antibody, name in Kabat numbering, V domains shown)
VH: QVQLVESGGGLVQPGRSLRLSCAASGFTFSNAWMHWVRQAPGKGLEWVAQIKDKGNAYAAYYAASVKGRFTISRDDSKNSIYLQMNSLKTEDTAVYYCHYVHYASASTVLPAFGVDAWGQGTTVTVSS
VL: DIVMTQSPLSLPVTPGEPASISCQASQELVHMNRNTYLHWYQQKPGQAPRLLIYKVSNRFPGVPDRFSGSGSGTDFTLKISRVEAEDVGVYYCAQGTSVPFTFGQGTKLEIK
B14: H183/L072 VH Q50F (antibody, name in Kabat numbering, V domains shown)
VH: QVQLVESGGGLVQPGRSLRLSCAASGFTFSNAWMHWVRQAPGKGLEWVAFIKDKGNAYAAYYAPSVKGRFTISRDDSKNSIYLQMNSLKTEDTAVYYCHYVHYASASTVLPAFGVDAWGQGTTVTVSS
VL: DIVMTQSPLSLPVTPGEPASISCQASQELVHMNRNTYLHWYQQKPGQAPRLLIYKVSNRFPGVPDRFSGSGSGTDFTLKISRVEAEDVGVYYCAQGTSVPFTFGQGTKLEIK
B15: H183/L072 VH Q50H (antibody, name in Kabat numbering, V domains shown)
VH: QVQLVESGGGLVQPGRSLRLSCAASGFTFSNAWMHWVRQAPGKGLEWVAHIKDKGNAYAAYYAPSVKGRFTISRDDSKNSIYLQMNSLKTEDTAVYYCHYVHYASASTVLPAFGVDAWGQGTTVTVSS
VL: DIVMTQSPLSLPVTPGEPASISCQASQELVHMNRNTYLHWYQQKPGQAPRLLIYKVSNRFPGVPDRFSGSGSGTDFTLKISRVEAEDVGVYYCAQGTSVPFTFGQGTKLEIK
B16: H183/L072 VH P100eI (antibody, name in Kabat numbering, V domains shown)
VH: QVQLVESGGGLVQPGRSLRLSCAASGFTFSNAWMHWVRQAPGKGLEWVAQIKDKGNAYAAYYAPSVKGRFTISRDDSKNSIYLQMNSLKTEDTAVYYCHYVHYASASTVLIAFGVDAWGQGTTVTVSS
VL: DIVMTQSPLSLPVTPGEPASISCQASQELVHMNRNTYLHWYQQKPGQAPRLLIYKVSNRFPGVPDRFSGSGSGTDFTLKISRVEAEDVGVYYCAQGTSVPFTFGQGTKLEIK
B17: H183/L072 VH Q50I (antibody, name in Kabat numbering, V domains shown)
VH: QVQLVESGGGLVQPGRSLRLSCAASGFTFSNAWMHWVRQAPGKGLEWVAIIKDKGNAYAAYYAPSVKGRFTISRDDSKNSIYLQMNSLKTEDTAVYYCHYVHYASASTVLPAFGVDAWGQGTTVTVSS
VL: DIVMTQSPLSLPVTPGEPASISCQASQELVHMNRNTYLHWYQQKPGQAPRLLIYKVSNRFPGVPDRFSGSGSGTDFTLKISRVEAEDVGVYYCAQGTSVPFTFGQGTKLEIK
B18: H183/L072 VH P61M (antibody, name in Kabat numbering, V domains shown)
VH: QVQLVESGGGLVQPGRSLRLSCAASGFTFSNAWMHWVRQAPGKGLEWVAQIKDKGNAYAAYYAMSVKGRFTISRDDSKNSIYLQMNSLKTEDTAVYYCHYVHYASASTVLPAFGVDAWGQGTTVTVSS
VL: DIVMTQSPLSLPVTPGEPASISCQASQELVHMNRNTYLHWYQQKPGQAPRLLIYKVSNRFPGVPDRFSGSGSGTDFTLKISRVEAEDVGVYYCAQGTSVPFTFGQGTKLEIK
B19: H183/L072 VH N53V (antibody, name in Kabat numbering, V domains shown)
VH: QVQLVESGGGLVQPGRSLRLSCAASGFTFSNAWMHWVRQAPGKGLEWVAQIKDKGVAYAAYYAPSVKGRFTISRDDSKNSIYLQMNSLKTEDTAVYYCHYVHYASASTVLPAFGVDAWGQGTTVTVSS
VL: DIVMTQSPLSLPVTPGEPASISCQASQELVHMNRNTYLHWYQQKPGQAPRLLIYKVSNRFPGVPDRFSGSGSGTDFTLKISRVEAEDVGVYYCAQGTSVPFTFGQGTKLEIK
B20: H183/L072 VH Q50D (antibody, name in Kabat numbering, V domains shown)
VH: QVQLVESGGGLVQPGRSLRLSCAASGFTFSNAWMHWVRQAPGKGLEWVADIKDKGNAYAAYYAPSVKGRFTISRDDSKNSIYLQMNSLKTEDTAVYYCHYVHYASASTVLPAFGVDAWGQGTTVTVSS
VL: DIVMTQSPLSLPVTPGEPASISCQASQELVHMNRNTYLHWYQQKPGQAPRLLIYKVSNRFPGVPDRFSGSGSGTDFTLKISRVEAEDVGVYYCAQGTSVPFTFGQGTKLEIK

Molecular target: T1, Human CD3eg linker
Assay: Biacore SPR, vs template H183/L072

Binder	fold change of affinity
B1	0.8 fold
B2	0 fold
B3	1.8 fold
B4	0.6 fold
B5	1.8 fold
B6	1.3 fold
B7	1.2 fold
B8	1.8 fold
B9	1.2 fold
B10	0 fold
B11	0.9 fold
B12	0 fold
B13	1.9 fold
B14	0.3 fold
B15	0.3 fold
B16	1.4 fold
B17	0.4 fold
B18	1.8 fold
B19	0.5 fold
B20	0 fold
